{"source": "the nanobody polyreactivity screen of Harvey et al. (2022)"}
{"assay": "yeast display, Sf9 membrane polyspecificity reagent, FACS + sequencing; frameworks hold sequencing errors", "how_it_was_run": "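A nanobody's polyreactivity label depends on the gate it was sorted from. Yeast display cells were stained with 10% biotinylated, detergent-solubilized Sf9 membrane reagent for 1 hour at 4 °C, enriched on streptavidin microbeads and sorted by FACS. The low and high (top ~1%) gates were set on anti-HA fluorescence for expression and streptavidin fluorescence for reagent binding.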"}
{"sequence": "QVQLVESGGGLDQAGGSLRLSCAASGSIFEPNAMVWYRQAPGKERELVAAITGGGGTNYADSVKGRFTLSRDNAKYTVYLQMNSLKPEDTAVYYCAKEVDHGDASDMDYWGQGTQVTVSS", "polyreactivity (PSR sort gate)": "low polyreactivity"}
{"sequence": "QVQLVESGGGLVQAGGSLRLSCAASGSIFLVYAMGWYRQAPGKERELVAVIRWRDGSTYYADSVKGRFTISRDNAMNTVYLQMNSLKPEDTAVYYCAADGVIFEYDYWGQGTQVTVSS", "polyreactivity (PSR sort gate)": "low polyreactivity"}
{"sequence": "QVQLVESGGGLVQAGGSLRLTCAASGSIFRWNAMGWYRQAPGKERELVASITSGGSTYYADSVKGRFTISRDNAKNTVYLQMISLKPEDTAVYYCAAARYPGRKFDYWGQGTQVTVSS", "polyreactivity (PSR sort gate)": "high polyreactivity"}
{"sequence": "QVQLVESGGGLVQAGGSLRLSCAASGFIFQWYAMGWYRQAPGKERELVAAISIGDSTYYADSVKGRFTISRDNAKNTVYLQMNSLKPEDTAVYYCNSDPWGYYCVIPLYEYDYWGQGTQVTVSS", "polyreactivity (PSR sort gate)": "low polyreactivity"}
{"sequence": "QVQLVESGGGLVQAGGSLRLSCAASGIILYFYDMGWYRQAPGKERELVAVITGGGGSTYYADSVKGRFTISRDNAMNTVYLQMNSLKPEDTAVYYCAALPWFPDEEYDYWGQGTQVTVSS", "polyreactivity (PSR sort gate)": "high polyreactivity"}
{"sequence": "QVQLQESGGGLVQAGGSLLSCAASGTISWVDEMGWYRQAPGNERELVAGIAGGGNTNYADSVKGRYTISRDNAKNTVYLQMNSLDTAVYYCAVVGFGRGTHIYWGQGTQVTVSS", "polyreactivity (PSR sort gate)": "high polyreactivity"}
{"sequence": "QVQLVESGGGLVQAGGSLRLSCAASGYIFRFNAMGWYRQAPGKERELVAVNTSGARTYYADSVKGRFTISRDNAKNTVYLQMNSLKPEDTAVYYCNAGARRYLYDYWGQGTQVTVSS", "polyreactivity (PSR sort gate)": "low polyreactivity"}
{"sequence": "QVQLLESGGGLVQAGGSLRLSCAASGSIFRGYAMGWYRQAPGKERELVAGIRGSDGSTYYADSVKGRFTISRDNAKNTVYLQMNSLKPEDTAVYYCAADRRYLDRDKHRYGYWGQGTQVTVSS", "polyreactivity (PSR sort gate)": "low polyreactivity"}
{"sequence": "QVQLQESGGGLVQAGGSLLLSCAASGSSYDDTYMGWYRQAPGKERELVATIDSGSTTNYADSVKGRNTISRDNAKYTLYLQMNSLKPEDTAVYYCAAADSHIDYFDYWGQGTQVTVSS", "polyreactivity (PSR sort gate)": "low polyreactivity"}
{"sequence": "QVQLVESGGGLVQAGGSLRLSCAASGGTFLYYMGWYRQSPGKERELVAAITFSGGSTYYADSVKGRFTISRDNAKNTVYLQMNSLKPEDTAVYYCAAGWYDWPKYLLSVYTYYLYDSWGQGTQVTVSS", "polyreactivity (PSR sort gate)": "low polyreactivity"}
{"sequence": "QVQLVESGGGLVQAGGSLRLSCAASGFIIRRYAMGWYRPAPGKERELVARISFRGGSTYYADSVKGRFTISRDNAKNTVYLQMNSLKPEATAVYYCNRDPLYSKVVDGDYWGHGTQVTVSS", "polyreactivity (PSR sort gate)": "high polyreactivity"}
{"sequence": "QVQLVESGGGLVQAGGSLRLSCAASGRTFDPNVMGWYRQAPGKERELVAAISRGGSTYYADSVKGRFTISRDNAKNTVYLQMNSLKPEDTAVYYCAATHYGHSISYWFDYWGQGTQVTVSS", "polyreactivity (PSR sort gate)": "high polyreactivity"}
{"sequence": "QVQHVESGGGLVQAGGSLRLSCASSGFILEPYGMGWYRPAPGKERELVAAITSGASTYYADSVKGRFTISRDNAMNTVYLQMNILKPEDTAVYYCAVDPYSTYSEYDSWGQGTQVTVSS", "polyreactivity (PSR sort gate)": "low polyreactivity"}
{"sequence": "QVQLVESGGGLVQAGGSLRLSCAASGSTFSDNAMGWYRQAPGKERELVAAISSGGSTNYADSVKGRFTISRDNAKNTVYLQMNSLKPEDTAVYYCAREYYSRRYDYWGQGTQVTVSS", "polyreactivity (PSR sort gate)": "low polyreactivity"}
{"sequence": "QVQLVESGGGLVQAGGSLRLSCAASGRTFAIYTMVWSRQAPGKERELVATISGSAGNTYYADSVKGRFTISRDNAKNTVYLQMNSLKPEDTAVYNCAARQRKARQIVLLDYWGQGTQVTVSS", "polyreactivity (PSR sort gate)": "high polyreactivity"}
{"sequence": "QVQLVESGGGLVQAGGSLRLSCAASGLIFKYYAMGWYRQAPGKERELVAAITGRGGSTYYADSVKGRFTISRDNAKNTVYLQMNSLKPEDTAVYYCARRRTYSFNPVTYDWGQGTQVTVSS", "polyreactivity (PSR sort gate)": "high polyreactivity"}
{"sequence": "QVQLVESGGGLVQAGGSLRLSCAASGRTFQYYAMGWYRQAPGKERELVAAISGIGTSTSYADSVKGRFTISRDNAKNTVYLQMNSLKPEDTAVYYCAARLLVPGSPWYTNYYWGQGTQVTVSS", "polyreactivity (PSR sort gate)": "low polyreactivity"}
{"sequence": "QVQLVESGGGLVQAGGSLRLSCAASGSIFAVYAMGWYRQAPGKERELVASISRTGTTNYADSVKGRFTISRDNAKNTVYLQMNSLKPEDSAVYYCNADAYLYYKYHWGFTFYQYVYWGQGTEVTVSS", "polyreactivity (PSR sort gate)": "low polyreactivity"}
{"sequence": "QVQLVESGGGLVQAGGSLRLSCAASGRISNDYAMGWYRQAPGKDRELVATITFSGGDTYYADSVKGRFTISRDHAKNTVYLQMNSLKPEDTAVYYCAASKWPSYSGGWWRLLFDYWGQGTQVTVSS", "polyreactivity (PSR sort gate)": "low polyreactivity"}
{"sequence": "QVQLVESGGGLVQAGGSLRLSCAASGFTLIDYAMGWYRQAPGKERELVAAISGSGGRTYYADSVKGRFTISRDNAKNTVYLQMNSLKPEDTAVYYCAAGRRHVYKRRRYDYWGQGTQVTVSS", "polyreactivity (PSR sort gate)": "high polyreactivity"}
{"sequence": "QVQLVESGGGLVQAGGSLRLSCAASGSIFKKYAKGWYIQAPGKERELVAAISKSGGSTYYADSVKGRFTISRDNAKTTVYLQMNSLKPEDTAVYYCAAAAGGSAYWDYDYWGQGTQVTVSS", "polyreactivity (PSR sort gate)": "low polyreactivity"}
{"sequence": "QVLLVESGGGLVQAGGILRLSCAASGRILPFNAMGWYRQAPGKAREFVAANSRVSGRTYYADSVKGRFTISRDNAKNTVYLQMNSLKPEDTAVYYCATDTYSYGYEYWGQGTHVTVSS", "polyreactivity (PSR sort gate)": "high polyreactivity"}
{"sequence": "QVQLVESGGGLVQAGGSLRLSCAASGSTFQFNFMGWYRQAPGKERELVAAITSGASTYYADSVKGRFTISRDNAMNTVYLQMNSLEPEDTAVYYCAVDYSFRYDYVQRYYYLGQGTQVTVSS", "polyreactivity (PSR sort gate)": "high polyreactivity"}
{"sequence": "QVQLVETGGGLVQAGGSLRLSCAASGRIFRNNAMGWYRQAPGKERELVAGISSGGSTYYADSVKGRFTMSRDNAKKTVYLQMNNLKPEDTAVYFFAVVGSAYQSRYDYWGQGNQVTVSS", "polyreactivity (PSR sort gate)": "high polyreactivity"}
{"sequence": "QVQLVESGGGLVQAGGSLRLSCAASGRIFILYAMGWYRQAPAKERALVAAISSGGGRTYYADSVKGRFTISRDNAKNTVYLQMNSLKPEDTAVYYCATRRRRTSQRQGYDYWGQGTQVTVSS", "polyreactivity (PSR sort gate)": "high polyreactivity"}
{"sequence": "QVQLVESGGGLVQAGGSLRLSCAASGNTFNYYTMGWYRQEPGKERELVAAIRSGGRTYYADSVKGRFTISRDNAKNTVYLLMNSLIPEDTAVYDCAAVAVTYRYDYWGQGTQVTVSS", "polyreactivity (PSR sort gate)": "high polyreactivity"}
{"sequence": "QVQLVESGGGLVQAGGSLRLSCAASGSIFYENVMGWYRQAPGKERELVAGISRSGGRTYYADSVKGRFTISRDNAKNTVYFQMNSLKPEDTAVYYCAALTPRNRYRKFDYWGQGTQVTVSS", "polyreactivity (PSR sort gate)": "high polyreactivity"}
{"sequence": "QVQLVESGGGLVQAGGSLRLSCAASGRTFLYSTMGWYRQAPGKERELVAAISKSVGRTYYADSVKGRFTISRDNAKNTVYLQMNSLKPEDTAVYYCAKRWYAGAQHGFDYLGQGTQVTVSS", "polyreactivity (PSR sort gate)": "low polyreactivity"}
{"sequence": "QVQLVESGGGLVQAGGSLRLSSAASGRTFFPNAMGWYRQAPGKERELVAAISSGGGGTYYADSVKGRFTISRDKAKNTVYLQMNRLKPEDTAVYYCAGRNSKVEEEGNYWGQGTQVTVSS", "polyreactivity (PSR sort gate)": "low polyreactivity"}
{"sequence": "QVQLQESGGGLVQAGGSLRMSCAASGTISPLPAMGWYRQAPGKDRDFVAGIDTGAITNYADSVKGRFTISRDNAKNTVYLQMNSLKPEDTAVYYCAVFPAAYDYYERYYTYWGQGTQVTVSS", "polyreactivity (PSR sort gate)": "low polyreactivity"}
{"sequence": "QVQLVESGGGLVQAGGSLRLSCAASGITFGRNTMGWYRQPPGKERELVAAIDSGGNTYADSVKGRFTISRDNAKNTVYLQMNSLKPEDTAVYYCAVDGGEFSSYGYWVQGTQVTVSS", "polyreactivity (PSR sort gate)": "low polyreactivity"}
{"sequence": "QVQLVESGGGLVQAGGSLRLSCAASGFTFVNYVMGWYRQAPGKERELVAAISRSGGSTYYADSVKGRFTISRDNAKNTVYLQMNSLKPEDTAVYYCAARWFYRAGFNYWGQGTQVTVSS", "polyreactivity (PSR sort gate)": "high polyreactivity"}
{"sequence": "QVQLVESGGGLVQAGGSLRLSCAASGSTFFQYAMGWYRPAPGKERELVAAITTSGGRTYYADSVKGRFTISRDNAKNTVYLQMNSLKPEDTAVYYCAGYNYWGQGTQVTVSS", "polyreactivity (PSR sort gate)": "high polyreactivity"}
{"sequence": "QVQLVESGGGLVQAGGSLRLSCAASGRILVVNAMGWYRQAPGKERELVASISQSGGITYADSVKGRFTISRDNAKNTVYLQMNSLKTEDTAVYYCAAKSTWEYDYWGQGTQVTVSS", "polyreactivity (PSR sort gate)": "low polyreactivity"}
{"sequence": "QVQLVESGGGLVQAGGSLRLSCAASGSIFYSNVMGWYRQAPGKERELVAAIRYSGVGTYYADSVKGRFTISRDNAKNTVYLLMNSLKPEDTAVYYCNAVTKVGYLRRRDYWGQGTKVTVSS", "polyreactivity (PSR sort gate)": "low polyreactivity"}
{"sequence": "QVQLVESGGGLVQAGGSLRLSCAASGSFFSTYAMGWYRQAPGKERELVAAISVSGSSTYYADSVKGLFTISRDNAKNTVYLQMNSLKPEDTAVYYCNKAFRSVRPRRRYDYWGQGTQVTVSS", "polyreactivity (PSR sort gate)": "low polyreactivity"}
{"sequence": "QVQLVESGGGLVQAGGSLRLSCAASGTFKYYAMGWYIQAPGEERELVAAISRGGRTNYADSVKGRFTISRDNAKNTVYLQMTSLKPEDTAVYYCAARKADTVFKFEYWGQGTQVTVSS", "polyreactivity (PSR sort gate)": "high polyreactivity"}
{"sequence": "QVQLVESGGGLVQAGGSLRLSCAASGSIFGLYAMGWYRQAPGKERELVAAINQSGGSTSYADSVKGRFTISRDTAKNTVYLQMNSLKPEDTAVYYCAVAIVTSGPFPRDYWGQGTQVTVSS", "polyreactivity (PSR sort gate)": "low polyreactivity"}
{"sequence": "QVQLVESGGGLDQAGGSLRLSCAASGLTFAYYTMGWSRQEPGKERELVADISRSGGSTYYADSVKGRFTISRDNAKNTVYLQMNSLKPEDTAVYYCAAYRYGSRYGYEYWGQGTQVTVSS", "polyreactivity (PSR sort gate)": "high polyreactivity"}
{"sequence": "QVQLVESGGGLVQAGGSLRLSCAASGSTFSQYVMGWYRQAPAKERELVAAISSGGSTYYADSVKGRFTISRDNAKNTVYLQMNSLKPEDTAVYYCAAKYDGSYVGLYWYSMNYWGQGTQVTVSS", "polyreactivity (PSR sort gate)": "low polyreactivity"}
{"sequence": "QVQLVESGGGLVQAGGSLRLSCAASGRTFRYYDMGWYRQSPGKERELVARISISGAGTYYADSVKVRFTISRDNAKNNVYLQMNSLKPEDTAVYYCAADLFWWQKTNSGGDYWGQGTQVTVSS", "polyreactivity (PSR sort gate)": "low polyreactivity"}
{"sequence": "QVQLVESGGGLVQAGGSLRLSCAASGRTFWGNAMGWYRQAPGKDRELVAAITSGGSTYYADSVKGRFTISRDNAKNTVYLQMNSLKPEDTAVYYCATRRIYKWYRYYYWGQGTQVTVSS", "polyreactivity (PSR sort gate)": "high polyreactivity"}
{"sequence": "QVQLVESGGGIVQAGGSLRLSCAASGFTFGYYARGWYRQAPGKERELVAAISSRVGRTYYADSVKGRFTISRDNAKNTDYLQMNSLKPEDTAVYYCNTVGKTQWYYYWGQGTQVTVAS", "polyreactivity (PSR sort gate)": "high polyreactivity"}
